Results published in the RNAGym collection of RNA variant scans (doi:10.1073/pnas.2313332121).

B1: TPR t1 (parent)
chain: GACCAAUCUGCCCUCAGAGCUCGAGAACAUCUUCGGAUGCAGAGGAGGCAGGCUUCGGUGGCGCGAUAGCGCCAACGUCCUCAACCUCCAAUGCAUCCCACCACAUGAUGAUGCCUGAAGAGCCUUGGUUUUUUG

Variants of: B1
Assay: polymerase ribozyme fitness, log enrichment relative to wild type (log ratio); higher = more active; in vitro selection for triplet polymerase activity
Procedure, shortened: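 Both subunits of a heterodimeric triplet polymerase ribozyme were given their own mutant library, built by PCR and transcribed. Each library was annealed with a biotinylated primer, the partner subunit and triplets, incubated frozen at −7 °C, and its extended constructs gel-excised, captured on streptavidin beads and amplified by RT-PCR, all in one round done in triplicate. Fitness is the logarithm of genotype enrichment relative to wild-type enrichment, with replicates averaged by inverse-variance weighting. That logarithm is base 2, and Illumina-sequenced genotypes needed ≥10 input reads and ≥1 read per output.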

In order of falling “polymerase ribozyme fitness (log ratio)” value:
1. C123U U134C  1.29
2. C49A U54A C73U U112C  1.26
3. A5G C8U A121C  1.12
4. A16C C124G  1
5. C40U C53A C73A C104U  0.971
6. G93A C124A  0.841
7. C11G G61U  0.628
8. C53A U106A G120U C123A  0.599
9. A83G A118U  0.587
10. C8G C49G  0.323
11. C12U U125A  0.114
12. C62U U131C  0.107
13. C70U C123A  -0.0908
14. G42C C124A  -0.168
15. C40U C73A C101U  -0.192
16. A2U C8U G45A A95G G120A  -0.217
17. C104U U106C G120U  -0.245
18. G69U G93C  -0.253
19. C8G A91C G122A  -0.3
20. G58U C115A  -0.324
21. G36A C62U  -0.332
22. U55C C64U  -0.472
23. U7G G69C  -0.478
24. C72U C94U  -0.599
25. G58A U125A  -0.652
26. U32C C73U A118G  -0.657
27. C11U G93C U112A G127C U134A  -0.699
28. C13U C85U C86G U106A  -0.767
29. C12U G42U  -0.819
30. G39C C53G C124U G128U  -0.975
31. U9A G47A U96G  -0.976
32. C12U G39A C85U  -1.02
33. C11U G61C G120U G122U  -1.06
34. A6C C12A G52U G61A  -1.1
35. A37C C49A C104U U125G  -1.1
36. G60C C94G  -1.12
37. A90C U125A  -1.2
38. G10A G45A  -1.2
39. C56A U129A  -1.22
40. C49U U59G  -1.24
41. C82A C85A  -1.3
42. A41U A74U  -1.31
43. G71A C72U  -1.32
44. G71A G93A  -1.39
45. G71C G135C  -1.39
46. C3U G69C  -1.44
47. G17C A43U G61A U87G G120C  -1.48
48. A18U C89U  -1.53
49. C22G C53U G57C U78C C104A C124G  -1.59
50. C73A G110A G120A  -1.61
51. C13U A105C  -1.68
52. C8A G69U C99A G120A G122A  -1.73
53. G51U A84C C88A A121C  -1.74
54. G42A U54C  -1.78
55. C12G C28G  -1.82
56. G42C C49A  -1.88
57. G69A C88A  -1.98
58. A46U C64U  -2.1
59. A2C C12A G110A U133A  -2.17
60. G58A C89G  -2.2
61. C89U A119U  -2.2
62. G128C  -2.23
63. C49U C115G  -2.23
64. C13G C53A C82A  -2.24
65. G42A G52C  -2.26
66. U9G C80A  -2.27
67. U9C G10A G52A G63U  -2.31
68. C13A C70U  -2.36
69. C4G C101U  -2.36
70. C49U U116G  -2.41
71. C8G C12U G42C G93A  -2.42
72. G60C C86A  -2.44
73. C13U A18C C88G U92A  -2.48
74. G10U U59A G71U  -2.51
75. A90U G113C  -2.53
76. A5U A18C A111C  -2.56
77. C4A A43G G47C C64U C86G U125G G127C  -2.57
78. G63U A83G C85A U129A  -2.64
79. G44U C49A C56U G117A  -2.64
80. A6C A105G U112C G127A  -2.69
81. C13A U14A U54A  -2.73
82. U30C U54A  -2.81
83. C20U U59A C76G  -2.85
84. U81C C89A A111G  -2.87
85. U81A G93C  -2.88
86. U54A U59A C80A C82G C123U  -2.88
87. C13A C101U G113A  -2.95
88. A43C C56A  -2.98
89. G63U G113C  -2.98
90. A16C G44C C73A C86U G120U  -2.98
91. U9G U54C G69A C80U  -2.99
92. C94G C102U  -3.04
93. U7A C12G A18U G45U U54G  -3.04
94. G47U A95U A108G C123A  -3.06
95. U9C G61A C89U A105C  -3.08
96. A29C G63U  -3.09
97. C13A C82A C94U G110A  -3.09
98. C15G C40A A121G U129C  -3.1
99. G69A U130A  -3.11
100. G10A C64U A103U C123U  -3.16
101. C34A C76U G120C  -3.22
102. C11G U21A C72G G110A  -3.29
103. C34U C73U  -3.35
104. G61A A84U G93C G128A  -3.36
105. G36A A111G  -3.41
106. A75G U96A U106G  -3.41
107. C22G G44C G48U A121U  -3.43
108. C15G C20U C62A G117U  -3.55
109. C49U G77U G113U G122U C124A  -3.66
110. A5U G44A C56U G117A  -3.69
111. G36A G42U C88A G113U  -3.82
112. G44U U129A U131A  -3.84
113. G69A U129A  -3.9
114. C15U A43C C76U  -3.95
115. C11G C40U G69U A74G C79A C115A  -4
116. G44A U81G U87G A90G  -4.02
117. A37U G39C G57C G61A U106C G113C  -4.04
118. G45U U116A  -4.04
119. G60A G107U  -4.12
120. C79A U116G  -4.15
121. G10A C15G A16G G63A C80U G113C  -4.34
122. C13A U33G C124G  -4.34
123. C20A C104A C123G  -4.45
124. C3G A18U A43U C114G  -4.61
125. C97G G120C  -4.64
126. C34G G57C C72A A100C  -4.64
127. G19U G39U G48A G63C A111G  -4.79
128. A2C C13A C72U  -4.81
129. C12G U109A  -4.88
130. C40U C72G G117U U130A  -4.89
131. G51U C115U  -4.89
132. C13G G63A G71A U112C  -5
133. C13U U30C A46U  -5.06
134. C72G A108C  -5.06
135. C12A G107A  -5.12
136. G44U C72U C76A C88U U109A  -5.19
137. C56A A105G A111C G113A  -5.31
138. G63A C99A A121C  -5.41
139. C15A A26G G44U C89A G120C  -5.42
140. C31U G47U C73A U112C G120C  -5.43
141. A74C C89A A91G C102A U109G  -5.5
142. C56U G61U C104U U112G G117U C124U  -5.56
143. A24U  -5.7
144. G17A C28U C62U U109A U116G  -5.8
145. G61A C97G G110A  -5.81
146. G10A U30A U54A  -5.83
147. A18C U92C G117A G120U U129A  -5.88
148. A26C C72U  -5.89
149. U14C A18G U21C G69U A103C C115U  -5.98
150. C31G G61U  -6.02
151. C15A C64U G110C  -6.12
152. G19C C28U C34A C53G C64A C114U U126C  -6.21
153. C34U C73A A111U C114G G135A  -6.34
154. G23C  -6.4
155. G60C C94G U96A A103C  -6.59
156. G71U C80G G107U G117A  -6.69
157. U38G G71U U92G G93A U112A  -6.86
158. A24U G36U U87C A90G G120U C124A U130G  -6.87
159. A50U U109A A111C G120U A121G  -6.95
160. G57U G60C A84U C99A C101U G117U  -6.95
161. C12U A41U G71U A103U A118U  -6.98
162. G10A A66G A103U U106A G110U G120A C124A G127A  -6.98
163. C15U C64G A90C C114U G128A  -6.98
164. G10U C15U A18U C49A C70U C80A G93U G117U  -7.04
165. A43U C73G C85U C98G C115U  -7.11
166. A26C G35C G39U A90C G117U  -7.41
167. A16G C40U A50U U55G C70U C79U U92C U112A  -7.45
